The results in this text go back to paper PMC9561264.

The target in one data set is hOGG1 C28A C28A (human) (UniProt O15527). In words: AFM. To be noted: oxidising; specificity 779 ± 471; 8-oxoguanine at ~50% (49.8%) of length; FP at 25°C with 5 nM labelled DNA; EMSA room temp 30 min, 15% native PAGE 0.5x TBE 4°C; interaction buffer 20 mM Tris-HCl pH 7.6, 200 mM NaCl (Fig. S12); reduci.
For data set [1], the target named is hOGG1 C28A;c-Myc C28A (human;human?) (UniProt O15527+P01106). In words: AFM. To be noted: 8-oxoguanine at ~50% (49.8%) of length; FP at 25°C with 5 nM labelled DNA; EMSA room temp 30 min, 15% native PAGE 0.5x TBE 4°C; interaction buffer 20 mM Tris-HCl pH 7.6, 200 mM NaCl (Fig. S12) ….
Chain of hOGG1 C28A;c-Myc C28A (human;human?) (O15527 whole entry C28A, chain 1 of 2): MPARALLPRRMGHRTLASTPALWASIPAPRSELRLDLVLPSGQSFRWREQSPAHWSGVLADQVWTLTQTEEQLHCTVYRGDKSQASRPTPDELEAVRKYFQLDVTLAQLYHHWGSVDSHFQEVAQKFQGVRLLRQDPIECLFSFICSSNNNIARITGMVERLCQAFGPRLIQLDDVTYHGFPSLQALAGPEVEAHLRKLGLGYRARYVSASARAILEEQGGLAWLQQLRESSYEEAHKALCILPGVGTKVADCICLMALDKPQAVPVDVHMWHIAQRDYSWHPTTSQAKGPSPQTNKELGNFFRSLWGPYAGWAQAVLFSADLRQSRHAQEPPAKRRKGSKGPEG
Chain of hOGG1 C28A;c-Myc C28A (human;human?) (P01106 16-454, chain 2 of 2): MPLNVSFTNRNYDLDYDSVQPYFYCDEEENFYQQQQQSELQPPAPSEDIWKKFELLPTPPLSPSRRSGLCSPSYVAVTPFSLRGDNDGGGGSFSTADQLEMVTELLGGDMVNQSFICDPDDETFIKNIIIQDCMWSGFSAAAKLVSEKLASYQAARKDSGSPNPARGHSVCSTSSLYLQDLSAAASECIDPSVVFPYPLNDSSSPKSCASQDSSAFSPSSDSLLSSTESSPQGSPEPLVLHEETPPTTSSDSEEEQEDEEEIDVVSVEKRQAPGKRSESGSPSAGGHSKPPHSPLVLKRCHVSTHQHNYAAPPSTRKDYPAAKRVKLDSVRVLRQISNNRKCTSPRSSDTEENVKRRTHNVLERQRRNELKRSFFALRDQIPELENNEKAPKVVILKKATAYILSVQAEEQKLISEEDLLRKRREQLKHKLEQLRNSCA
The target of data set [2] is hOGG1 K249Q K249Q (human) (UniProt O15527). Kind of data set: AFM. To be noted: 8-oxoguanine at ~50% (49.8%) of length, FP at 25°C with 5 nM labelled DNA, EMSA room temp 30 min, 15% native PAGE 0.5x TBE 4°C. A general note: In EMSA bound probe runs differently from free probe, usually more slowly.
Chain of hOGG1 K249Q K249Q (human) (O15527 whole entry K249Q): as the sequence (O15527 whole entry C28A, chain 1 of 2) above, with A28C, K249Q counted along it
Data set [3] concerns the target hOGG1 K249Q;c-Myc K249Q (human;human?) (UniProt O15527+P01106). In words: AFM. Particulars: 8-oxoguanine at ~50% (49.8%) of length, FP at 25°C with 5 nM labelled DNA, EMSA room temp 30 min, 15% native PAGE 0.5x TBE 4°C.
Data set [4] has as its target T1, hOGG1 wild type;c-Myc (human;human?) (UniProt O15527+P01106). Kind of data set: AFM. To be noted: 30 nM Myc, 8-oxoguanine at ~50% (49.8%) of length, FP at 25°C with 5 nM labelled DNA, EMSA room temp 30 min, 15% native PAGE 0.5x TBE 4°C, interaction buffer 20 mM Tris-HCl pH 7.6, 200 mM NaCl (Fig. S12) ….
In data set [5] the target is T2, hOGG1 wild type;c-Myc;Max (human;human?;human?) (UniProt O15527+P01106). In words: AFM. Particulars: 8-oxoguanine at ~50% (49.8%) of length, FP at 25°C with 5 nM labelled DNA, EMSA room temp 30 min, 15% native PAGE 0.5x TBE 4°C.
T2 sequence (P01106 whole entry, looked up, chain 1 of 2): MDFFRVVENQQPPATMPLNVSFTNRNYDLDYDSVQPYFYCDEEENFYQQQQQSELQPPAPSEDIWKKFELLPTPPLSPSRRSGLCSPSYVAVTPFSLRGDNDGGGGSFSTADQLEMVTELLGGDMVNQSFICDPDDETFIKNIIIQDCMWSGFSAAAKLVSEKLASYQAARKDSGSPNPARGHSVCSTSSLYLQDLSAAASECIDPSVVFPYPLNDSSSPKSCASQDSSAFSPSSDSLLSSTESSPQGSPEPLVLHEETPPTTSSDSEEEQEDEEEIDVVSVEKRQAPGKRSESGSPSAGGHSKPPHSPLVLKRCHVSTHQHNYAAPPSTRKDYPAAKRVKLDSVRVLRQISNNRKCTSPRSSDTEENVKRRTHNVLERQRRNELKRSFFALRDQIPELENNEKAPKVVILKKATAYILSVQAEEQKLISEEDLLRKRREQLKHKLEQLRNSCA
T2 sequence (O15527 whole entry, looked up, chain 2 of 2): as the sequence (O15527 whole entry C28A, chain 1 of 2) above, with A28C counted along it
The target in data set [6] is T2, hOGG1 wild type;c-Myc;Max (human;human?;human?). In words: AFM (QD-Myc). To be noted: FP at 25°C with 5 nM labelled DNA, EMSA room temp 30 min, 15% native PAGE 0.5x TBE 4°C, interaction buffer 20 mM Tris-HCl pH 7.6, 200 mM NaCl (Fig. S12) ….
A further data set addresses c-Myc;Max (UniProt P01106). In words: AFM (QD-Myc). Particulars: 8-oxoguanine 8 bp upstream of E-box, ~50% of length; FP at 25°C with 5 nM labelled DNA; EMSA room temp 30 min, 15% native PAGE 0.5x TBE 4°C; interaction buffer 20 mM Tris-HCl pH 7.6, 200 mM NaCl (Fig. S12) ….
The target of data set [7] is hOGG1 C28A;c-Myc;Max C28A (human;human?;human?) (UniProt O15527+P01106). Kind of data set: AFM (QD-Myc). To be noted: 8-oxoguanine 8 bp upstream of E-box, ~50% of length; FP at 25°C with 5 nM labelled DNA; EMSA room temp 30 min, 15% native PAGE 0.5x TBE 4°C; interaction buffer 20 mM Tris-HCl pH 7.6, 200 mM NaCl (Fig. S12) ….
Chain of hOGG1 C28A;c-Myc;Max C28A (human;human?;human?) (P01106 whole entry, looked up, chain 1 of 2): as the sequence (P01106 whole entry, looked up, chain 1 of 2) above
Chain of hOGG1 C28A;c-Myc;Max C28A (human;human?;human?) (O15527 whole entry, looked up, stated change not applied, chain 2 of 2): as the sequence (O15527 whole entry C28A, chain 1 of 2) above, with A28C counted along it
Data set [8] has as its target hOGG1 K249Q;c-Myc;Max K249Q (human;human?;human?) (UniProt O15527+P01106). In words: AFM (QD-Myc). To be noted: 8-oxoguanine 8 bp upstream of E-box, ~50% of length; FP at 25°C with 5 nM labelled DNA; EMSA room temp 30 min, 15% native PAGE 0.5x TBE 4°C; interaction buffer 20 mM Tris-HCl pH 7.6, 200 mM NaCl (Fig. S12) ….
For data set [9], the target named is T1, hOGG1 wild type;c-Myc (human;human?). Kind of data set: AFM (QD-Myc). To be noted: 8-oxoguanine 8 bp upstream of E-box, ~50% of length; FP at 25°C with 5 nM labelled DNA; EMSA room temp 30 min, 15% native PAGE 0.5x TBE 4°C; interaction buffer 20 mM Tris-HCl pH 7.6, 200 mM NaCl (Fig. S12) ….

Values joined by “and” are separate entries in the source; they are usually repeats but may differ in a detail not shown here. Equal values may be shown once.

T1 sequence (O15527 whole entry, chain 1 of 2): as the sequence (O15527 whole entry C28A, chain 1 of 2) above, with A28C counted along it
T1 sequence (P01106 16-454, chain 2 of 2): as the sequence (P01106 16-454, chain 2 of 2) above
Chain of hOGG1 K249Q;c-Myc K249Q (human;human?) (O15527 whole entry K249Q, chain 1 of 2): as the sequence (O15527 whole entry C28A, chain 1 of 2) above, with A28C, K249Q counted along it
Chain of hOGG1 K249Q;c-Myc K249Q (human;human?) (P01106 16-454, chain 2 of 2): as the sequence (P01106 16-454, chain 2 of 2) above
Chain of hOGG1 K249Q;c-Myc;Max K249Q (human;human?;human?) (P01106 whole entry, looked up, chain 1 of 2): as the sequence (P01106 whole entry, looked up, chain 1 of 2) above
Chain of hOGG1 K249Q;c-Myc;Max K249Q (human;human?;human?) (O15527 whole entry, looked up, stated change not applied, chain 2 of 2): as the sequence (O15527 whole entry C28A, chain 1 of 2) above, with A28C counted along it
Chain of c-Myc;Max (P01106 whole entry, looked up): as the sequence (P01106 whole entry, looked up, chain 1 of 2) above
Chain of hOGG1 C28A C28A (human) (O15527 whole entry C28A): as the sequence (O15527 whole entry C28A, chain 1 of 2) above

For the substance oxoG 505 bp AFM substrate, the binding signal (counts/DNA at oxoG) came out at 0.14 with hOGG1 C28A C28A (human); 0.14 in [1]; 0.09 in [2] (oxidising, specificity 294 ± 139, interaction buffer 20 mM Tris-HCl pH 7.6, 200 mM NaCl (Fig. S12), reduci); 0.18 in data set [2] (reducing, specificity 468 ± 197, interaction buffer 20 mM Tris-HCl pH 7.6, 200 mM NaCl (Fig. S12) …); 0.1 in [3] (oxidising, specificity 438 ± 217, interaction buffer 20 mM Tris-HCl pH 7.6, 200 mM NaCl (Fig. S12), reduci); 0.15 in [3] (reducing, specificity 421 ± 153, interaction buffer 20 mM Tris-HCl pH 7.6, 200 mM NaCl (Fig. S12) …). Further, the binding signal (counts/DNA at oxoG) in data set [4] (oxidising, specificity 423 ± 155) came out at 0.17; in data set [4] (reducing, specificity 517 ± 161), 0.17; in data set [5] (oxidising, specificity 421 ± 252, interaction buffer 20 mM Tris-HCl pH 7.6, 200 mM NaCl (Fig. S12), reduci) it was 0.19; in [5] (reducing, specificity 456 ± 289, interaction buffer 20 mM Tris-HCl pH 7.6, 200 mM NaCl (Fig. S12) …), 0.12. Also, in data set [6] (8-oxoguanine at ~50% (49.8%) of length), the binding signal was 0.15 Myc/DNA and 0.06 Myc/DNA.

Turning to E-box AFM substrate, the binding signal in data set [6] came out at 0.11 Myc/DNA.

With oxoG-E-box AFM substrate, the binding signal with c-Myc;Max is 0.14 Myc/DNA and 0.12 Myc/DNA; in data set [7], 0.16 Myc/DNA; in data set [8], 0.29 Myc/DNA and 0.17 Myc/DNA; in [9], 0.12 Myc/DNA and 0.08 Myc/DNA; in data set [6] (8-oxoguanine 8 bp upstream of E-box, ~50% of length), 0.29 Myc/DNA and 0.17 Myc/DNA.
